Test results reported in PMC9864903, “Imaging of the Glucose-Dependent Insulinotropic Polypeptide Receptor Using a Novel Radiolabeled Peptide Rationally Designed Based on Endogenous GIP and Synthetic Exendin-4 Sequences” (Pharmaceuticals, 2022).

What was measured:
[1] = human predicted dosimetry extrapolated from rat organ distribution (OLINDA/EXM 1.1)
Description: The predicted dosimetry in humans was calculated using [^68Ga]Ga-C803-GIP organ distribution data obtained in healthy male Sprague Dawley rats. The rat decay-uncorrected SUVs (SUVA) in various organs were normalized to the whole-body adult reference phantom weights (Equation (2)) in order to assess the residence times (MBq-h/MBq) of the tracer in those organs. The data from the measured time points (5, 10, 20, 40, 60, 90, 120, and 180 min) were used for trapezoidal approximation followed by the extrapolation from the last point to infinity by a single exponential fit. The bone marrow blood volume model was used for the determination of the residence time in bone marrow. The absorbed doses were calculated using OLINDA/EXM version 1.1 with reference to adult male and female phantoms (International Commission on Radiological Protection 60). (2) [%/organ]human=SUVA×(gorgan/kgweight)human

[2] = dynamic PET/CT organ distribution in pig; type: in vivo; conditions: liver, total radioactivity, dynamic PET/CT
From the text: An anesthetized pig (25 kg) was positioned to include the abdomen with pancreas in the center of the 25 cm axial field of view of a Discovery MI PET/CT scanner (GE Healthcare, MI, USA) by assistance of a low-dose CT scout view (140 kV, 10 mAs). The details of the animal handling, preparation, and anesthesia have been previously described.
Attenuation correction was acquired by a 140 kV, 10–80 mA CT examination. The administration of [^68Ga]Ga-C803-GIP (17.3 MBq, corresponding to approximately 2.5 μg peptide or 0.10 μg/kg) was made upon the start of the baseline dynamic scan lasting for 90 min (30 frames; […]). The dynamic scan was followed by a static scan over the brain from 90–120 min post administration. A second PET investigation was performed after an additional 2 h to allow the radioactivity from the first scan to fade from the circulation by decay and excretion.
The GIP(1-42) infusion was continued until the end of the PET scan. Finally, after the last PET scan, a contrast-enhanced CT scan was performed to assist delineation of the tissues, e.g., the pancreas.
Segmentation of the tissues of interest (descending aorta, pancreas, spleen, kidney, liver, and muscle) was performed in PMOD (PMOD Technologies), and time–activity curves were expressed as SUV as detailed above.

[3] = ex vivo organ distribution in Sprague Dawley rats; conditions: rat, i.v.
Description: The in vivo organ distribution of [^68Ga]Ga-C803-GIP was assessed in Sprague Dawley rats (324 ± 36 g, male, n = 16). The radiotracer was administered into the tail vein of unsedated animals as a bolus in 0.5–0.6 mL of PBS as the vehicle. The animals received 4.1 ± 2.2 MBq/kg ^68Ga]Ga-C803-GIP corresponding to 2.4 ± 1.3 µg/kg peptide mass.
The in vivo organ distribution was conducted for 5 to 180 min, euthanizing two animals at each of eight time points (5, 10, 20, 40, 60, 90, 120, or 180 min). Samples of blood, heart, lung, liver, pancreas, spleen, adrenal, kidney, small intestine (without/with its content), large intestine (without its content), feces, urinary bladder (rinsed), testis, muscle, bone, bone marrow, thyroid, and brain were immediately harvested, weighed, and measured for radioactivity (gamma counter). The organ uptake of [^68Ga]Ga-C803-GIP was corrected for radioactivity decay to the time point of administration and expressed as standardized uptake values (SUVs, Equation (1)). (1) SUV (1/1)=Radioactivitytissue (Bq)/Weighttissue(g)/Radioactivityinjected (Bq)/Weightbody(g)
The competition experiments were designed and guided by the results of the organ distribution study. Based on the observed rapid clearance of [^68Ga]Ga-C803-GIP from the pancreas (known to contain the GIPR), 20 min post-administration was the time point selected for the blocking studies. The rats (351 ± 23 g, male, n = 8) were administered [^68Ga]Ga-C803-GIP (18.4 ± 3.7 MBq/kg; 10.7 ± 2.2 µg/kg). A high radioactive dose was selected to potentially increase the tissue signal. Half of them (n = 4) received [^68Ga]Ga-C803-GIP alone, while the other half was co-injected with 1 mg/kg of non-labeled C803-GIP. The animals were sacrificed 20 min after the administration of [^68Ga]Ga-C803-GIP, and the tissue uptake of the tracer was analyzed as described above.

## CC[C@H](C)[C@H](NC(=O)[C@H](CO)NC(=O)[C@H](Cc1ccc(O)cc1)NC(=O)[C@H](CC(=O)O)NC(=O)[C@H](CO)NC(=O)[C@@H](NC(=O)[C@H](Cc1ccccc1)NC(=O)[C@@H](NC(=O)CNC(=O)[C@H](CCC(=O)O)NC(=O)[C@@H](C)NC(=O)[C@@H](N)Cc1ccc(O)cc1)[C@@H](C)O)[C@@H](C)CC)C(=O)N[C@@H](C)C(=O)N[C@@H](CC(C)C)C(=O)N[C@@H](CC(=O)O)C(=O)N[C@@H](CCCCN)C(=O)N[C@H](C(=O)N[C@@H](Cc1c[nH]cn1)C(=O)N[C@@H](CCC(N)=O)C(=O)N[C@@H](CCC(N)=O)C(=O)N[C@@H](CCC(=O)O)C(=O)N[C@@H](Cc1ccccc1)C(=O)N[C@H](C(=O)N[C@@H](CCC(=O)O)C(=O)N[C@@H](Cc1c[nH]c2ccccc12)C(=O)N[C@@H](CC(C)C)C(=O)N[C@@H](CCCCN)C(=O)N[C@@H](C)C(=O)NCC(=O)NCC(=O)N[C@@H](Cc1c[nH]cn1)C(=O)N1CCC[C@H]1C(=O)N[C@@H](CO)C(=O)NCC(=O)N[C@@H](C)C(=O)N1CCC[C@H]1C(=O)N1CCC[C@H]1C(=O)N1CCC[C@H]1C(=O)N[C@@H](CO)C(=O)N[C@@H](CSCCS(=O)(=O)CCN1CCN(CC(=O)O)CCN(CC(=O)O)CCN(CC(=O)O)CC1)C(N)=O)[C@@H](C)CC)[C@@H](C)CC [[^68Ga]Ga-C803-GIP, metal not drawn]
[1]; human
  predicted absorbed radiation dose, kidneys, females: 0.773 mGy/MBq
  predicted absorbed radiation dose, kidneys, males: 0.713 mGy/MBq
[1]; human female phantom
  Equivalent dose, Adrenals, Female: 0.0124 mSv/MBq
  Equivalent dose, Brain, Female: 0.000658 mSv/MBq
  Equivalent dose, Breasts, Female: 0.00113 mSv/MBq
  Equivalent dose, Gallbladder Wall, Female: 0.00555 mSv/MBq
  Equivalent dose, Heart Wall, Female: 0.0362 mSv/MBq
  Equivalent dose, Kidneys, Female: 0.773 mSv/MBq
  Equivalent dose, LLI Wall, Female: 0.00196 mSv/MBq
  Equivalent dose, Liver, Female: 0.00754 mSv/MBq
  Equivalent dose, Lungs, Female: 0.0073 mSv/MBq
  Equivalent dose, Muscle, Female: 0.00306 mSv/MBq
  Equivalent dose, Osteogenic Cells, Female: 0.0145 mSv/MBq
  Equivalent dose, Pancreas, Female: 0.0089 mSv/MBq
  Equivalent dose, Red Marrow, Female: 0.0135 mSv/MBq
  Equivalent dose, Skin, Female: 0.001 mSv/MBq
  Equivalent dose, Small Intestine, Female: 0.00398 mSv/MBq
  Equivalent dose, Spleen, Female: 0.0124 mSv/MBq
  Equivalent dose, Stomach Wall, Female: 0.00374 mSv/MBq
  Equivalent dose, Testes/Ovaries, Female: 0.00189 mSv/MBq
  Equivalent dose, Thymus, Female: 0.00198 mSv/MBq
  Equivalent dose, Thyroid, Female: 0.000543 mSv/MBq
  Equivalent dose, ULI Wall, Female: 0.00371 mSv/MBq
  Equivalent dose, Urinary Bladder Wall, Female: 0.00202 mSv/MBq
[1]; human male phantom
  Equivalent dose, Adrenals, Male: 0.00936 mSv/MBq
  Equivalent dose, Brain, Male: 0.000541 mSv/MBq
  Equivalent dose, Breasts, Male: 0.000934 mSv/MBq
  Equivalent dose, Gallbladder Wall, Male: 0.00515 mSv/MBq
  Equivalent dose, Heart Wall, Male: 0.0319 mSv/MBq
  Equivalent dose, Kidneys, Male: 0.713 mSv/MBq
  Equivalent dose, LLI Wall, Male: 0.00166 mSv/MBq
  Equivalent dose, Liver, Male: 0.006 mSv/MBq
  Equivalent dose, Lungs, Male: 0.00576 mSv/MBq
  Equivalent dose, Muscle, Male: 0.00227 mSv/MBq
  Equivalent dose, Osteogenic Cells, Male: 0.0109 mSv/MBq
  Equivalent dose, Pancreas, Male: 0.00777 mSv/MBq
  Equivalent dose, Red Marrow, Male: 0.014 mSv/MBq
  Equivalent dose, Skin, Male: 0.000859 mSv/MBq
  Equivalent dose, Small Intestine, Male: 0.0031 mSv/MBq
  Equivalent dose, Spleen, Male: 0.0101 mSv/MBq
  Equivalent dose, Stomach Wall, Male: 0.00335 mSv/MBq
  Equivalent dose, Testes/Ovaries, Male: 0.00137 mSv/MBq
  Equivalent dose, Thymus, Male: 0.00178 mSv/MBq
  Equivalent dose, Thyroid, Male: 0.000487 mSv/MBq
  Equivalent dose, ULI Wall, Male: 0.00309 mSv/MBq
  Equivalent dose, Urinary Bladder Wall, Male: 0.00152 mSv/MBq
[1]; whole-body, human female phantom
  Effective dose, Female: 0.0237 mSv/MBq
[1]; whole-body, human male phantom
  Effective dose, Male: 0.0217 mSv/MBq
[2]; read-out: uptake in the liver after 30 min
  SUV at 0.5 h: < 1 SUV
[2]; read-out: uptake in the liver after 90 min
  SUV at 1.5 h: ~0.5 SUV
[3]; male, Sprague Dawley, liver, iv, total radioactivity, 5 min post-administration, read-out: liver uptake
  SUV at 5 min: < 1 SUV
[3]
  liver washout with respect to the 5 min time point, within 1 h: 50%
  liver washout with respect to the 5 min time point, within 3 h: 75%
[3]; within 3 h
  kidney uptake: 85.5 ± 1.6 SUV
